Article PMC5589570, “The antigenic identity of human class I MHC phosphopeptides is critically dependent upon phosphorylation status” (Oncotarget, 2017)
Square brackets hold non-standard residues; d marks the D form. Ends that are not written are not given here. pS = N[C@@H](COP(=O)(O)O)C(=O)O

What was measured:
[1] = target: HLA-A2 (heavy chain with β2-microglobulin) (human | ); assay: radioligand binding; competitive peptide binding assay: test peptide (100,000-fold concentration range, triplicate) displaces a radiolabeled peptide from HLA-A2 (refolded with […]); MHC-peptide complexes captured on plates coated with antibody W6/32; IC50 taken as a reasonable approximation of the dissociation constant; conditions: both partners purified
[2] = target: HLA-A2 (heavy chain with β2-microglobulin) (human | , Heavy-chain limits are not given; taken from the longest deposited entity of this paper (mature 1-276, A*02:01). Bound peptide not included: the test peptide is the partner, and the affinity-assay c); assay: as above; conditions: both partners purified

B1: RQIp, phosphopeptide RQIpSQDVKL derived from adenosine monophosphate deaminase 2 (AMPD2) (peptide)
peptide: RQI[pS]QDVKL
notes: stretch of adenosine monophosphate deaminase 2 (AMPD2); source: synthetic peptide
**Q.** For B1, which Kd [1] is on record?
**A.** 25.5 nM

B2: RQInp, unmodified peptide RQISQDVKL derived from adenosine monophosphate deaminase 2 (AMPD2) (peptide)
peptide: RQISQDVKL
notes: stretch of adenosine monophosphate deaminase 2 (AMPD2); also called non-phosphorylated RQI; source: synthetic peptide
**Q.** Which Kd [2] does the source give for B2 here?
**A.** 1920 nM

B3: RQA_Vnp, unmodified peptide RQASIELPSMAV derived from Lymphocyte Specific Protein 1 (LSP-1) (peptide)
peptide: RQASIELPSMAV
notes: stretch of Lymphocyte Specific Protein 1 (LSP-1); source: synthetic peptide
**Q.** For B3, which Kd [2] is on record?
**A.** 26 nM
